Test results: patent US20120010151A1
Where no end group is shown, it is not given here. The star is where a group is joined. Boc = CC(C)(C)OC(=O)*

Molecular target: Wnt-5a receptors (on A2058 melanoma cells)
Test: cell-based or functional assay

Binder: Boc-MDGCEL [Box5 (Wnt-5a-derived N-butyloxycarbonyl hexapeptide Met-Asp-Gly-Cys-Glu-Leu)]
- inhibition of the Wnt-5a-induced Ca2+ signal (fura-2, A2058 melanoma cells, 100 uM Box5, 0.1 ug/ml Wnt-5a): > 70%
